In publication PMC9400901, “Advanced Insights into Catalytic and Structural Features of the Zinc‐Dependent Alcohol Dehydrogenase from Thauera aromatica” (Chembiochem, 2022):

How the values were obtained:
Type in all cases: biochemical, Thauera aromatica
[1] = substrate: CC1=CC(O)CCC1; assay: purified protein; settings: oxidation, standard assay: NAD+ 1 mmol L^−1, 100 mmol L^−1 HEPES pH 9.0, 40 °C, pH 9.0
[2] = substrate: NC(=O)c1ccc[n+]([C@@H]2C[C@H](COP(=O)(O)OP(=O)(O)OC[C@H]3O[C@@H](n4cnc5c(N)ncnc54)[C@H](O)[C@@H]3O)[C@@H](O)[C@H]2O)c1; assay: purified protein; settings: oxidation, co-substrate not given, standard assay pH 9.0, 40 °C, pH 9.0, varied: cofactor
[3] = substrate: NC(=O)C1=CN([C@@H]2O[C@H](COP(=O)(O)OP(=O)(O)OC[C@H]3O[C@@H](n4cnc5c(N)ncnc54)[C@H](O)[C@@H]3O)[C@@H](O)[C@H]2O)C=CC1; assay: purified protein; settings: reduction, co-substrate not given, standard assay pH 6.5, 40 °C, pH 6.5, varied: cofactor
[4] = substrate: NC(=O)c1ccc[n+]([C@@H]2O[C@H](COP(=O)(O)OP(=O)(O)OC[C@H]3O[C@@H](n4cnc5c(N)ncnc54)[C@H](O)[C@@H]3O)[C@@H](O)[C@H]2O)c1; assay: purified protein; settings: oxidation, co-substrate not given, standard assay pH 9.0, 40 °C, pH 9.0, varied: cofactor
[5] = substrate: O=C1CCCCC1=O; assay: Michaelis-Menten kinetics, reduction; photometric standard assay or FDH-coupled biotransformation; settings: NADH 0.25 mmol L^−1, 100 mmol L^−1 potassium phosphate pH 6.5, room temperature, solubility limit reached
Text: (§1) Michaelis-Menten kinetics, reduction; photometric standard assay or FDH-coupled biotransformation on ThaADH

[6] = substrate: O=C1CCCCC1Br; assay: as above; settings: NADH 0.25 mmol L^−1, potassium phosphate pH 6.5, room temperature, 3 % (v/v) DMSO, racemic substrate
Text: as §1

[7] = substrate: O=C1CCCCC1Cl; assay: as above; settings: NADH 0.25 mmol L^−1, potassium phosphate pH 6.5, room temperature, 1 % (v/v) DMSO, racemic substrate
Text: as §1

B1: ThaADH (Thauera aromatica) (protein)
chain: MSSNPHRWMMTSPGAPMVRAEFEIGELSADQVVVAVAGCGVCHTDLGYYYDSVRTNHALPLALGHEISGRVVQAGANAAQWLGRAVIVPAVMPCGTCELCTSGHGTICRDQVMPGNDIQGGFASHVVVPARGLCPVDEARLAAAGLQLADVSVVADAVTTPYQAVLQAGVEPGDVAVVIGVGGVGGYAVQIANAFGASVVAIDVDPAKLEMMSKHGAALTLNAREISGRDLKKAIEAHAKANGLRLTRWKIFECSGTGAGQTSAYGLLTHGATLAVVGFTMDKVEVRLSNLMAFHARALGNWGCLPEYYPAALDLVLDKKIDLASFIERHPLDQIGEVFAAAHAHKLTRRAILTP
notes: full-length WT, recombinant in E. coli BL21(DE3), pET22b; C-terminal Strep-tag for all kinetics, N-terminal His-tag for crystals; about 40 kDa monomer, dimer in solution (89 kDa by SEC; tetramer and higher in blue native PAGE), two zinc per monomer
Km [1]: 21.6 ± 1.9 mM
Vmax [1]: 2.4 µmol/min/mg
kcat [1]: 1.77 ± 0.05 s⁻¹
kcat/Km [1]: 80 ± 10 M⁻¹ s⁻¹
Km [2]: 0.7 ± 0.1 mM
Vmax [2]: 0.9 µmol/min/mg
kcat [2]: 0.66 ± 0.04 s⁻¹
kcat/Km [2]: 940 ± 190 M⁻¹ s⁻¹
Km [3]: 0.07 ± 0.02 mM
Vmax [3]: 9.1 µmol/min/mg
kcat [3]: 6.63 ± 0.74 s⁻¹
kcat/Km [3]: 94700 ± 37600 M⁻¹ s⁻¹
Km [4]: 1.0 ± 0.2 mM
Vmax [4]: 2.2 µmol/min/mg
kcat [4]: 1.63 ± 0.1 s⁻¹
kcat/Km [4]: 1630 ± 430 M⁻¹ s⁻¹
Km [5]: 68.1 ± 33.8 mM
Vmax [5]: 53.3 µmol/min/mg
kcat [5]: 39.1 ± 10.1 s⁻¹
kcat/Km [5]: 570 ± 430 M⁻¹ s⁻¹
Km [6]: 24.1 ± 6.8 mM
Vmax [6]: 6.3 µmol/min/mg
kcat [6]: 4.62 ± 0.47 s⁻¹
kcat/Km [6]: 190 ± 70 M⁻¹ s⁻¹
Km [7]: 33.1 ± 10.4 mM
Vmax [7]: 14.9 µmol/min/mg
kcat [7]: 10.9 ± 1.38 s⁻¹
kcat/Km [7]: 330 ± 150 M⁻¹ s⁻¹
